This passage reports Kd and IC50 results from the Immune Epitope Database (IEDB).

One test addresses HLA-A*26:01. The test is described as follows: IEDB peptide-MHC binding, purified MHC/direct/fluorescence; filed as Kd, often an IC50 or EC50 that approximates it; ≥ and ≤ were set here for values at or beyond the usual limits of such assays. To be noted: source organism: Rickettsia felis URRWXCal2.
For the next test, the target named is HLA-B*46:01. The test is described as above. To be noted: source organism: Rickettsia australis.
The next test has as its target HLA-B*08:01. The test is described as above. To be noted: source organism: Rickettsia felis URRWXCal2.
In another test the target is HLA-A*31:01. The test is described as above. To be noted: source organism: Rickettsia australis.
For another test, the target named is HLA-B*18:01. Described as above. To be noted: source organism: Rickettsia australis.
Test [1] has as its target HLA-A*03:01. The description is as above. To be noted: source organism: Rickettsia australis.
The target in the next test is HLA-B*27:05. The description is as above. To be noted: source organism: Rickettsia australis.
For test [2], the target named is HLA-B*58:01. The description is as above.
The next test concerns the target HLA-B*07:02. The description is as above. To be noted: source organism: Rickettsia australis.
The target in a further test is HLA-B*40:01. Described as above. To be noted: source organism: Rickettsia australis.
The target of another test is HLA-A*24:02. The description is as above. To be noted: source organism: Rickettsia australis.
Test [3] concerns the target HLA-A*02:01. The test is described as above.
The target of another test is HLA-A*11:01. The test is described as above. To be noted: source organism: Rickettsia australis.
Another test deals with HLA-A*69:01. The test is described as above.
Test [4] concerns the target HLA-B*15:01. The description is as above.
Test [5] has as its target HLA-A*01:01. The description is as above.
The target of the next test is HLA-B*44:02. The description is as above. To be noted: source organism: Rickettsia australis.
For test [6], the target named is HLA-B*58:01. The test is described as follows: IEDB peptide-MHC binding, purified MHC/competitive/fluorescence; filed as Kd, often an IC50 or EC50 that approximates it; ≥ and ≤ were set here for values at or beyond the usual limits of such assays.
The target of test [7] is HLA-A*01:01. The test is described as above.
For the next test, the target named is HLA-C*12:03. The test is described as follows: IEDB peptide-MHC binding, purified MHC/direct/fluorescence; filed as Kd, often an IC50 or EC50 that approximates it; ≥ and ≤ were set here for values at or beyond the usual limits of such assays.
The target in test [8] is HLA-A*03:01. The test is described as follows: IEDB peptide-MHC binding, purified MHC/competitive/fluorescence; filed as Kd, often an IC50 or EC50 that approximates it; ≥ and ≤ were set here for values at or beyond the usual limits of such assays. To be noted: source organism: Salmonella enterica subsp. enterica serovar Typhi.
The target of test [9] is HLA-B*15:01. The test is described as above.
Another test addresses HLA-B*83:01. Described as above.
For a further test, the target named is HLA-B*15:42. Described as above.
Another test deals with HLA-B*45:06. The description is as above.
A further test addresses HLA-C*04:01. Described as above.
Another test has as its target HLA-B*53:01. The test is described as follows: IEDB peptide-MHC binding, purified MHC/competitive/fluorescence; ≥ and ≤ were set here for values at or beyond the usual limits of such assays. To be noted: source organism: human gammaherpesvirus 4.
Another test addresses HLA-C*15:02. The test is described as follows: IEDB peptide-MHC binding, purified MHC/direct/fluorescence; filed as Kd, often an IC50 or EC50 that approximates it; ≥ and ≤ were set here for values at or beyond the usual limits of such assays.
Another test addresses HLA-C*05:01. The description is as above. To be noted: source organism: Haemophilus influenzae R2846.
The next test has as its target HLA-A*02:06. The test is described as follows: IEDB peptide-MHC binding, purified MHC/competitive/fluorescence; filed as Kd, often an IC50 or EC50 that approximates it; ≥ and ≤ were set here for values at or beyond the usual limits of such assays.
For test [10], the target named is HLA-A*02:01. Described as above. To be noted: source organism: Yersinia pestis Nepal516.
A further test concerns the target HLA-C*03:03. The test is described as follows: IEDB peptide-MHC binding, purified MHC/direct/fluorescence; filed as Kd, often an IC50 or EC50 that approximates it; ≥ and ≤ were set here for values at or beyond the usual limits of such assays. To be noted: source organism: Salmonella enterica subsp. enterica serovar Typhi str. CT18.
The next test has as its target HLA-A*23:01. The test is described as follows: IEDB peptide-MHC binding, purified MHC/competitive/fluorescence; filed as Kd, often an IC50 or EC50 that approximates it; ≥ and ≤ were set here for values at or beyond the usual limits of such assays. To be noted: source organism: Rickettsia bellii RML369-C.
The target of another test is HLA-B*15:17. The test is described as follows: IEDB peptide-MHC binding, purified MHC/direct/fluorescence; filed as Kd, often an IC50 or EC50 that approximates it; ≥ and ≤ were set here for values at or beyond the usual limits of such assays. To be noted: source organism: Campylobacter jejuni RM1221.
For a further test, the target named is HLA-B*57:01. The test is described as above. To be noted: source organism: Campylobacter jejuni RM1221.
In a further test the target is HLA-A*02:03. The test is described as follows: IEDB peptide-MHC binding, purified MHC/competitive/fluorescence; filed as Kd, often an IC50 or EC50 that approximates it; ≥ and ≤ were set here for values at or beyond the usual limits of such assays. To be noted: source organism: Haemophilus influenzae R3021.
The target of a further test is HLA-A*02:11. The description is as above. To be noted: source organism: Haemophilus influenzae R3021.
The mark [11] stands for this setting: source organism: Rickettsia australis.
Where [12] appears, read: source organism: Escherichia coli.
The mark [13] stands for this setting: source organism: Salmonella enterica subsp. enterica serovar Typhi.
Where [14] appears, read: source organism: Yellow fever virus 1899/81.
Setting [15] is: source organism: Human herpesvirus 4 strain B95-8.
Setting [16] is: source organism: Salmonella enterica subsp. enterica serovar Paratyphi B str. SPB7.
Setting [17] is: source organism: Mycobacterium tuberculosis C.
The mark [18] stands for this setting: source organism: Haemophilus influenzae.

On to ATYGTAVNK, for which the Kd (as a rule, the free concentration of one partner at which half of the binding sites on the other are occupied at equilibrium, for simple one-to-one binding) in the test with HLA-A*26:01 is not below 20000 nM; in the test with HLA-B*46:01, not below 20000 nM; with HLA-B*08:01, not below 20000 nM; with HLA-A*31:01, 37.1 nM; with HLA-B*18:01, not below 20000 nM; in the test with HLA-A*03:01 [1], 83.3 nM. Besides, the Kd in the test with HLA-B*27:05, with HLA-B*58:01 [2] (setting [11]), with HLA-B*07:02, with HLA-B*40:01, with HLA-A*24:02 and in the test with HLA-A*02:01 [3] (setting [11]) was not below 20000 nM throughout. Also, the Kd with HLA-A*11:01 is 29.6 nM; with HLA-A*69:01 (setting [11]) it was not below 20000 nM; with HLA-B*15:01 [4] (setting [11]) it was not below 20000 nM; in the test with HLA-A*01:01 [5] (setting [11]), not below 20000 nM; with HLA-B*44:02 it was not below 20000 nM.
Regarding YSALRPHEY, the dissociation constant (Kd) stood at 1380 nM with HLA-B*58:01 [6] (setting [12]), 12 nM in the test with HLA-A*01:01 [7] (setting [12]) and 9 nM in the test with HLA-C*12:03 (source organism: Escherichia coli B171).
Regarding ASIADILTY, the equilibrium dissociation constant (Kd) with HLA-A*03:01 [8] was not below 20000 nM; in the test with HLA-B*58:01 [6] (setting [13]) it was 20.7 nM; with HLA-B*15:01 [9] (setting [13]), 425 nM; in the test with HLA-A*01:01 [7] (setting [13]) it was 764 nM.
For REMHHLVEF, the dissociation constant (Kd) with HLA-B*83:01 (setting [14]), with HLA-B*15:42 (setting [14]), with HLA-B*45:06 (setting [14]) and with HLA-C*04:01 (setting [14]) was not below 5000 nM in each case.
Take MTAASYARY: the IC50 (as a rule, the concentration that inhibits the measured activity by half) with HLA-B*53:01 is not below 20000 nM.
In the case of TSDEIYMTF, the values for the dissociation constant (Kd) in the test with HLA-C*15:02 (source organism: Haemophilus influenzae R2846) and in the test with HLA-C*05:01 were not below 20000 nM and 16 nM, respectively.
As to RQPLNIQAI, the Kd was determined as 59.2 nM with HLA-A*02:06 (source organism: Yersinia pestis Nepal516) and 305 nM with HLA-A*02:01 [10].
HPVLVTATL yielded an IC50 with HLA-B*53:01 of 3910 nM.
As to KAVETPILV, the results for the Kd with HLA-C*15:02 (setting [15]) and with HLA-C*12:03 (setting [15]) were 51 nM and not above 1 nM, respectively.
MMQTYTGAL: the Kd with HLA-B*15:01 [9] (source organism: Salmonella enterica subsp. enterica serovar Typhi str. CT18) worked out at 64.9 nM; with HLA-C*03:03 it was 119 nM.
Regarding FSDLLSMAW, the figures for the dissociation constant Kd with HLA-B*58:01 [6] (setting [16]), with HLA-B*15:01 [9] (setting [16]) and with HLA-A*01:01 [7] (setting [16]) were 2.4 nM, not below 20000 nM and 1.4 nM, respectively.
For VMLQIPFYK, the Kd with HLA-A*23:01 came out at 308 nM.
In the case of RLYQYSFAK, the Kd with HLA-B*83:01 (setting [17]), in the test with HLA-B*15:42 (setting [17]), with HLA-B*45:06 (setting [17]) and with HLA-C*04:01 (setting [17]) was not below 5000 nM each time.
Regarding HSNSEYLMF, the Kd in the test with HLA-B*15:17 worked out at 1.1 nM; in the test with HLA-C*15:02 (source organism: Campylobacter jejuni), 93 nM; with HLA-B*57:01 it was 134 nM; with HLA-B*58:01 [2] (source organism: Campylobacter jejuni RM1221), 5.5 nM.
The sequence MLNRYKLIY had an IC50 with HLA-B*53:01 of 170 nM.
Turning to MLEEMQSAV, the Kd was 4.4 nM in the test with HLA-A*02:03; not above 0.1 nM in the test with HLA-A*02:06 (source organism: Haemophilus influenzae R3021); not above 0.1 nM with HLA-A*02:11; 71 nM with HLA-A*02:01 [3] (setting [18]); 2660 nM with HLA-A*69:01 (setting [18]); not below 67200 nM in the test with HLA-B*15:01 [4] (setting [18]). Also, the dissociation constant (Kd) with HLA-A*01:01 [5] (setting [18]) is 2100 nM.
